Source: US20240084011A1 (NANTBIO, published 2024)
Positions count from the first letter of the chain named.

T1: recombinant human CTLA-4 protein (human, UniProt P16410 36-161)
T1 construct: Recombinant protein used as analyte in SPR/Octet; also called hCTLA-4; CD152
T1 sequence (looked up): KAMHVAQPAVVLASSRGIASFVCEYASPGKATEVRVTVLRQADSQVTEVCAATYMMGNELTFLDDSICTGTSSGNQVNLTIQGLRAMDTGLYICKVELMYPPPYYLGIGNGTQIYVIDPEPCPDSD

B1: IgG antibody 78-8D2 HC / 78-8 LC (antibody, V domains shown)
VH: EVQLVESGGGLVQPGGSLRLSCAASGFTFSSYVMHWVRQAPGKGLEWVSAITWSGRGTYYADSVKGRFTISRDNSKNTLYLQMNSLRAEDTAVYYCARGRLFGLALYGEAFDVWGQGTLVTVSS
VL: DIQMTQSPSSLSASVGDRVTITCQASKDISNYLNWYQQKPGKAPKLLIYDASNLETGVPSRFSGSGSGTDFTFTISSLQPEDIATYYCQQFNSFPLTFGQGTKVEIKR
B2: IgG antibody 78-24D1V HC / 78-24 LC (antibody, V domains shown)
VH: EVQLVESGGGLVQPGGSLRLSCAASGFTFTSYSMHWVRQAPGKGLEWVSGISGSGRSTSYADSVKGRFTISRDNSKNTLYLQMNSLRAEDTAVYYCARDLMAFNLVRAGGFDVWGQGTLVTVSS
VL: B1 VL with K27Q, F91G, N92D, S93A, F94W, L96W
B3: IgG antibody 78-24D22V HC / 78-24 LC (antibody, V domains shown)
VH: B2 VH with T30P, R56W
VL: B1 VL with K27Q, F91G, N92D, S93A, F94W, L96W
B4: IgG antibody 78-8D4 HC / 78-8 LC (antibody, V domains shown)
VH: B1 VH with R56G, A105V, L106R
VL: B1 VL
B5: IgG antibody 78-8D22 HC / 78-8 LC (antibody, V domains shown)
VH: B1 VH with T52S, R56S, L106R
VL: B1 VL
B6: IgG antibody 78-24D17V HC / 78-24 LC (antibody, V domains shown)
VH: B2 VH with T30S, Y32S, R56G, D99Y, A102S, A108T, G109S, G110W
VL: B1 VL with K27Q, F91G, N92D, S93A, F94W, L96W

What was measured:
[1] = molecular target: T1, recombinant human CTLA-4 protein; experiment: SPR (Pioneer FE) or Octet (Red96e), 25 C; IgG captured by anti-human Fc or AHC sensor, hCTLA-4 as analyte
Excerpt: (§1) All values shown in Table 5 are ×10⁻⁹ M. Antibodies were captured on the chip surface using anti-human Fc antibody (SPR) or AHC sensor (Octet).

[2] = molecular target: T1, recombinant human CTLA-4 protein; experiment: SPR (Pioneer FE) or Octet (Red96e), 37 C; IgG captured by anti-human Fc or AHC sensor, hCTLA-4 as analyte
Excerpt: as §1

[3] = molecular target: T2, recombinant mouse CTLA-4 protein (mouse, UniProt P09793 36-161); experiment: SPR (Pioneer FE) or Octet (Red96e), 25 C; IgG captured by anti-human Fc or AHC sensor, mCTLA-4 as analyte
T2 construct: Recombinant protein used as analyte in SPR/Octet; also called murine CTLA-4; mCTLA-4
Excerpt: as §1

[4] = molecular target: T2, recombinant mouse CTLA-4 protein; experiment: SPR (Pioneer FE) or Octet (Red96e), 37 C; IgG captured by anti-human Fc or AHC sensor, mCTLA-4 as analyte
Excerpt: as §1

Row | Binder | Kd [1] [nM] | Kd [2] [nM] | Kd [3] [nM] | Kd [4] [nM]
1 | B1 | 0.41 | 0.67 | 0.32 | 0.4
2 | B2 | 1.6 | 1.5 | 0.18 | 0.23
3 | B3 | 1.4 | 1.3 | 0.19 | 0.27
4 | B4 | 0.39 | 0.39 | 0.27 | 0.27
5 | B5 | 0.46 | 0.44 | 0.39 | 0.53
6 | B6 |  |  | 0.34 | 0.33
